Source: patent publication US20230193255

Assays:
[1] = biological target: Variant TEV cleavage site ENVYFQS
[2] = biological target: TEV cleavage site ENLYFQS
[3] = biological target: Variant TEV cleavage site ENLFFQS

B1: TEV protease S219V mutant (protein)
chain: ESLFKGPRDYNPISSTICHLTNESDGHTTSLYGIGFGPFIITNKHLFRRNNGTLLVQSLHGVFKVKNTTTLQQHLIDGRDMIIIRMPKDFPPFPQKLKFREPQREERICLVTTNFQTKSMSSMVSDTSCTFPSSDGIFWKHWIQTKDGQCGSPLVSTRDGFIVGIHSASNFTNTNNYFTSVPKNFMELLTNQEAQQWVSGWRLNADSVLWGGHKVFMVKPEEPFQPVKEATQLMN
B1 was tested, and the “efficiency of cleavage by TEV at the TCS” value [1] was “found to exhibit 1% efficiency”, the “efficiency of cleavage by TEV at the TCS” value [2] was “considered to be 100% efficient” and the “efficiency of cleavage by TEV at the TCS” value [3] was “found to exhibit 10% efficiency”.
